Assay results taken from PMC5039624 (Scientific Reports, 2016).

B1: unnamed (parent)
chain 1: SECGKFMWKCKNSNDCCKDLVCSSRWKWCVLASPF
chain 2: RGLSDLGGRVRNIGDVMEHPLVELGVSYAALLSVIVVVVEYTMQLSGEYLVRLYLVDLILVIILWADYAYRAYKSGDPAGYVKKTLYEIPALVPAGLLALIEGHLAGLGLFRLVRLLRFLRILLIISRGSKFLSAIADAADK

Variants of: B1
Assay: pull-down
Set-up: reference not given here
Settings: with partner chain of the complex shown; His6-tagged VSDK micelles immobilized on nickel-NTA beads; read off a plot
With chain 2 Y41A T42A Q44A the screen value was 51%. For chain 2 T42A, the screen value was 6%. chain 2 R115A was tested, and the screen value was 7%. chain 2 Y41A showed a screen value of 8%. chain 2 W65A was tested, and the screen value was -7%. In the case of chain 2 S46A, the screen value is reported as 11%. Variant chain 2 Y41A T42A has a screen value of 19%.
